Reference: patent publication US20250066503A1, “CELL INJURY INDUCING THERAPEUTIC DRUG FOR USE IN CANCER THERAPY” (CHUGAI SEIYAKU KABUSHIKI KAISHA, priority 2016, published 2025)
“Also recorded” adds a separate entry of the source. Values belong to the molecule of their own block, whether it stands above or below them.

Legend:
[1] = systemic administration; non-small-cell lung cancer patients; Phase I; cited from earlier work
[2] = system: NCI-H446 human cancer cell line; assay: Cytotoxic activity (cell proliferation inhibition rate, xCELLigence) with human PBMCs; type: cell-based; settings: human PBMCs as effector cells; NCI-H446 target cells; 72 hours
Method: Using a syringe preloaded with 100 μL of 1,000 units/mL heparin solution (Novo Heparin for injection, 5000 units, Novo Nordisk), 50 mL of peripheral blood was collected from each healthy volunteer (adult individual). This peripheral blood was diluted two-fold in PBS(−), divided into four aliquots, and added into a Leucosep tube for lymphocyte separation (Cat. No. 227290, Greiner Bio-One) that had been loaded with 15 mL of Ficoll-Paque PLUS and subjected to centrifugation in advance. This separation tube was centrifuged (at 2150 rpm for ten minutes at room temperature), and then the mononuclear cell fraction was collected. The cells in the mononuclear cell fraction were washed once with the Dulbecco's Modified Eagle's Medium containing 10% FBS (manufactured by SIGMA, hereinafter referred to as 10% FBS/D-MEM), and then prepared to have a cell density of 4×10^6 cells/mL using 10% FBS/D-MEM. The cell suspension prepared this way was used as the human PBMC solution in the experiment below.
Cytotoxic activity was assessed by the rate of cell proliferation inhibition using the xCELLigence Real-Time Cell Analyzer (Roche Diagnostics). […]
Cytotoxic activity was measured by the method described in Reference Example 1-3-2.
CDR and FR were determined according to the Kabat definition (Kabat numbering). […]

[3] = target: human GPC3 (Homo sapiens, UniProt P51654); assay: Affinity for human GPC3 by surface plasmon resonance (Biacore T200); type: binding
Method: The activity to bind human GPC3 when using GL4 (SEQ ID NO: 41) and L0000 (SEQ ID NO: 53) as the L-chain variable regions was evaluated. This was performed using the molecular form of a single-arm antibody having a single Fab at the Fc region of a human IgG1 heterodimerized by the knobs-into-hole technique. H0000 (SEQ ID NO: 40) was used for the anti-GPC3 antibody H-chain variable region.
The affinity and binding rate constants of an anti-GPC3 antibody for an antigen were measured by the multi-cycle kinetics method of a surface plasmon resonance assay using Biacore™-T200 (GE Healthcare Japan). HBS-EP+(GE Healthcare Japan) was used for the running buffer, and an amine coupling kit (GE Healthcare Japan) was used to covalently bind Protein A/G to the CM5 chip (carboxymethyl dextran-coated chip). Each anti-GPC3 antibody was prepared so that approximately 100 RU will be captured by Protein A/G. Human GPC3 used as the analyte was prepared at 8, 16, 32, 64, and 128 nM using HBS-EP+. Measurements were carried out by first allowing Protein A/G to capture the antibody solution, and then injecting the human GPC3 solution at a flow rate of […] for three minutes to allow reaction to take place. Then, the solution was switched to HBS-EP+ and the dissociation phase was measured for 15 minutes. After completion of the dissociation phase measurement, the sensor chip was regenerated by washing with 10 mM Gly-HCl at pH 1.5. Measurement at the concentration of 0 was similarly carried out by allowing Protein A/G to capture the antibody solution, performing a three-minute HBS-EP+ injection to allow reaction to take place, and then switching to HBS-EP+ to measure the dissociation phase for 15 minutes. […]
CDR and FR were determined according to the Kabat definition (Kabat numbering).
First, point mutations were introduced into CDR1, CDR2, and CDR3 of the anti-human GPC3 bispecific antibody sequence produced in Reference Example 2, H0000-ERY27_HK (SEQ ID NO: 54), to prepare modified antibodies. Next, the affinity of these modified antibodies for soluble human GPC3 was determined.

[4] = single-arm antibody, multi-cycle kinetics

Chain of human GPC3 (P51654 25-563 limits assumed): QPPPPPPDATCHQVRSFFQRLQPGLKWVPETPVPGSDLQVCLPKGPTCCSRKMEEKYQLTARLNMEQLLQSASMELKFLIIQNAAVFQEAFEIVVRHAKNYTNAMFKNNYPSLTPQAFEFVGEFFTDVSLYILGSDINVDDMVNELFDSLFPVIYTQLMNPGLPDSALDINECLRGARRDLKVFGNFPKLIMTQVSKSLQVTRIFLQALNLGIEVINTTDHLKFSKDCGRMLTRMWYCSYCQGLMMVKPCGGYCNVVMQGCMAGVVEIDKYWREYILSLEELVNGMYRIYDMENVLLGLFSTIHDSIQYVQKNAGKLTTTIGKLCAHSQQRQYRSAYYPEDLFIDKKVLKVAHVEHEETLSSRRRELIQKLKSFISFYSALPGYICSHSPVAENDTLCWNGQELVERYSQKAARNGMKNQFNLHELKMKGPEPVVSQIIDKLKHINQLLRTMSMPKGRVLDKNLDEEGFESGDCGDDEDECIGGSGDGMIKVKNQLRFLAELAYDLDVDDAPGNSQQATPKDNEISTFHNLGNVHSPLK

Molecule: catumaxomab
maximum tolerable dose [1]: 5 g/body

B1: GPC3_ERY27_hCE115: humanized anti-human CD3ε chain and anti-human GPC3 bispecific antibody (SEQ ID NOs: 54, 55, and 56) (protein)
chain 1: QVQLVQSGAEVKKPGASVKVSCKASGYTFTDYEMHWIRQPPGQGLEWIGAIDPKTGDTAYSQKFKGRVTLTADKSTSTAYMELSSLTSEDTAVYYCTRFYSYTYWGQGTLVTVSSASTKGPSVFPLAPCSRSTSESTAALGCLVKDYFPEPVTVSWNSGALTSGVHTFPAVLQSSGLYSLSSVVTVPSSSLGTKTYTCNVDHKPSNTKVDKRVESKYGPPCPPCPAPEFRGGPKVFLFPPKPKDTLMISRTPEVTCVVVDVSQEDPEVQFNWYVDGVEVHNAKTKPREEQFASTYRVVSVLTVLHQDWLNGKEYKCKVSNKGLPSSIEKTISKAKGQPREPQVYTLPPSQKEMTKNQVSLTCLVKGFYPSDIAVEWESNGQPENNYKTTPPVLDSDGSFFLYSRLTVDKSRWQEGNVFSCSVMHEALHNRYTQKSLSLSLHHHHHHHH
chain 2: QVQLVESGGGVVQPGRSLRLSCAASGFTFSNAWMHWVRQAPGKGLEWVAQIKAKSNNYATYYAESVKGRFTISRDDSKNSLYLQMNSLKTEDTAVYYCRYVHYGAYYGVDAWGQGTTVTVSSASTKGPSVFPLAPCSRSTSESTAALGCLVKDYFPEPVTVSWNSGALTSGVHTFPAVLQSSGLYSLSSVVTVPSSSLGTKTYTCNVDHKPSNTKVDKRVESKYGPPCPPCPAPEFRGGPKVFLFPPKPKDTLMISRTPEVTCVVVDVSQEDPEVQFNWYVDGVEVHNAKTKPREEQFASTYRVVSVLTVLHQDWLNGKEYKCKVSNKGLPSSIEKTISKAKGQPREPQVYTLPPSQEEMTKNQVSLTCLVKGFYPSDIAVEWESNGQPENNYKTTPPVLDSDGSFFLYSRLTVDKSRWQEGNVFSCSVMHEALHNHYTQESLSLSLDYKDDDDK
chain 3: DIVMTQSPLSLPVTPGEPASISCRSSQSLVHSNRNTYLHWYQQKPGQAPRLLIYKVSNRFSGVPDRFSGSGSGTDFTLKISRVEAEDVGVYYCGQGTQVPYTFGQGTKLEIKRTVAAPSVFIFPPSDEQLKSGTASVVCLLNNFYPREAKVQWKVDNALQSGNSQESVTEQDSKDSTYSLSSTLTLSKADYEKHKVYACEVTHQGLSSPVTKSFNRGEC
modifications: An artificially generated sequence
cytotoxic activity (T-cell-dependent cellular cytotoxicity) [2]: reduction of the activity; also recorded: lower

B2: GPC3_ERY22_rCE115: heterodimeric bispecific antibody of GL4-ERY22_Hk, H0000-ERY22_L, rCE115H-ERY22_Hh, rCE115L-k0 (SEQ ID NOs: 47-50) (antibody)
heavy 1: DIVMTQSPLSLPVTPGEPASISCRSSQSLVHSNRNTYLHWYQQKPGQAPRLLIYKVSNRFSGVPDRFSGSGSGTDFTLKISRVEAEDVGVYYCSQNTHVPPTFGQGTKLEIKSSASTKGPSVFPLAPSSKSTSGGTAALGCLVKDYFPEPVTVSWNSGALTSGVHTFPAVLQSSGLYSLSSVVTVPSSSLGTQTYICNVNHKPSNTKVDKKVEPKSCDKTHTCPPCPAPEAAGGPSVFLFPPKPKDTLMISRTPEVTCVVVDVSHEDPEVKFNWYVDGVEVHNAKTKPREEQYASTYRVVSVLTVLHQDWLNGKEYKCKVSNKALPAPIEKTISKAKGQPREPQVCTLPPSRDELTKNQVSLWCLVKGFYPSDIAVEWESNGQPENNYKTTPPVLDSDGSFFLYSKLTVDKSRWQQGNVFSCSVMHEALHNHYTQKSLSLSPHHHHHHHH
light 1: QVQLVQSGAEVKKPGASVKVSCKASGYTFTDYEMHWIRQPPGQGLEWIGAIDPKTGDTAYSQKFKGRVTLTADKSTSTAYMELSSLTSEDTAVYYCTRFYSYTYWGQGTLVTVSSASVAAPSVFIFPPSDEQLKSGTASVVCLLNNFYPREAKVQWKVDNALQSGNSQESVTEQDSKDSTYSLSSTLTLSKADYEKHKVYACEVTHQGLSSPVTKSFNRGEC
heavy 2: EVQLVETGGSLVQPGKSLKLTCATSGFTFSNAWMHWVRQSPEKQLEWVAQIKAKSNNYATYYAESVKGRFTISRDDSKSNIYLQMNSLKEEDTAVYYCRYVHYGAYYGVDAWGQGTSVTVSSASTKGPSVFPLAPSSKSTSGGTAALGCLVKDYFPEPVTVSWNSGALTSGVHTFPAVLQSSGLYSLSSVVTVPSSSLGTQTYICNVNHKPSNTKVDKKVEPKSCDKTHTCPPCPAPEAAGGPSVFLFPPKPKDTLMISRTPEVTCVVVDVSHEDPEVKFNWYVDGVEVHNAKTKPREEQYASTYRVVSVLTVLHQDWLNGKEYKCKVSNKALPAPIEKTISKAKGQPREPQVYTLPPSRCELTKNQVSLSCAVKGFYPSDIAVEWESNGQPENNYKTTPPVLDSDGSFFLVSKLTVDKSRWQQGNVFSCSVMHEALHNHYTQKSLSLSPDYKDDDDK
light 2: DVVMTQTPVSMSVSLGGQVSISCRSSQSLVHNNGNTYVSWYIQKPSQSPQLLIYKVSNRFSGISDRFSGSGSGTDFTLKISRVEPDDLGVYYCGQGTQDPYTFGAGTKLELKRTVAAPSVFIFPPSDEQLKSGTASVVCLLNNFYPREAKVQWKVDNALQSGNSQESVTEQDSKDSTYSLSSTLTLSKADYEKHKVYACEVTHQGLSSPVTKSFNRGEC
modifications: An artificially generated sequence
cytotoxic activity (T-cell-dependent cellular cytotoxicity) [2]: very strong activity

Kd ([3]; soluble human GPC3, Table 13): 4.57 nM
B3: antibody-1: anti-human CD3ε chain and anti-human GPC3 bispecific antibody (antibody)
heavy: B2 heavy 2
light: B2 light 2
chain 1: B2 heavy 1
chain 2: B2 light 1

Affinity for human GPC3 ka [3, 4]: 430000 M⁻¹ s⁻¹
Affinity for human GPC3 kd [3, 4]: 0.0018 s⁻¹
B4: H0000/GL4: single-arm anti-GPC3 antibody, H0000 (SEQ ID NO: 40) with GL4 (SEQ ID NO: 41) (antibody, V domains shown)
VH: QVQLVQSGAEVKKPGASVKVSCKASGYTFTDYEMHWIRQPPGQGLEWIGAIDPKTGDTAYSQKFKGRVTLTADKSTSTAYMELSSLTSEDTAVYYCTRFYSYTYWGQGTLVTVSS
VL: DIVMTQSPLSLPVTPGEPASISCRSSQSLVHSNRNTYLHWYQQKPGQAPRLLIYKVSNRFSGVPDRFSGSGSGTDFTLKISRVEAEDVGVYYCSQNTHVPPTFGQGTKLEIK
modifications: An artificially generated sequence
